In the Human Domainome abundance scans (Beltran et al. 2025):
± gives the uncertainty stated by the source.

B1: Mineralocorticoid receptor, residues 600 to 675; numbered along this chain, P08235 (parent)
chain: SKICLVCGDEASGCHYGVVTCGSCKVFFKRAVEGQHNYLCAGRNDCIIDKIRRKNCPACRLQKCLQAGMNLGARKS

Variants of: B1
Test: abundance fitness (aPCA) (normalised: wild type 0, dead -1); higher = more abundant; growth selection in yeast, the domain comes from the species named
Conditions: Homo sapiens

Variant	abundance fitness
K2V	-0.142 ± 0.043
K2W	-0.246 ± 0.063
K2Y	-0.085 ± 0.098
I3A	-0.157 ± 0.044
I3C	-0.172 ± 0.073
I3D	-0.062 ± 0.085
I3E	-0.146 ± 0.055
I3F	-0.04 ± 0.12
I3G	-0.162 ± 0.04
I3H	-0.11 ± 0.066
I3K	-0.196 ± 0.057
I3L	-0.239 ± 0.043
I3M	-0.192 ± 0.054
I3N	-0.022 ± 0.072
I3P	-0.453 ± 0.06
I3Q	-0.152 ± 0.05
I3R	-0.225 ± 0.035
I3S	-0.128 ± 0.04
I3T	-0.164 ± 0.056
I3V	-0.166 ± 0.041
I3W	-0.315 ± 0.053
I3Y	-0.027 ± 0.071
C4A	-1.37 ± 0.35
C4D	-0.549 ± 0.15

Variant	abundance fitness
C4E	-0.727 ± 0.11
C4F	-0.753 ± 0.26
C4G	-0.842 ± 0.1
C4H	-0.77 ± 0.21
C4I	-0.808 ± 0.2
C4K	-0.87 ± 0.23
C4L	-0.768 ± 0.1
C4M	-0.96 ± 0.19
C4N	-1.04 ± 0.37
C4P	-0.986 ± 0.27
C4Q	-0.812 ± 0.19
C4S	-0.851 ± 0.14
C4T	-0.837 ± 0.12
C4V	-0.989 ± 0.24
C4W	-1.06 ± 0.27
C4Y	-0.99 ± 0.42
L5A	-0.05 ± 0.041
L5C	-0.069 ± 0.057
L5D	-0.168 ± 0.082
L5E	-0.071 ± 0.089
L5F	-0.027 ± 0.075
L5H	-0.239 ± 0.07
L5I	-0.089 ± 0.08
L5K	0.057 ± 0.067

Variant	abundance fitness
L5M	-0.133 ± 0.058
L5N	-0.068 ± 0.078
L5P	-0.075 ± 0.06
L5Q	0.05 ± 0.069
L5R	-0.091 ± 0.042
L5S	-0.075 ± 0.04
L5T	-0.037 ± 0.044
L5V	-0.209 ± 0.041
L5W	-0.106 ± 0.052
L5Y	-0.076 ± 0.071
V6A	-0.051 ± 0.043
V6C	-0.228 ± 0.071
V6D	-0.765 ± 0.45
V6G	-0.726 ± 0.093
V6I	0.008 ± 0.078
V6K	-0.83 ± 0.23
V6L	-0.375 ± 0.047
V6M	-0.416 ± 0.09
V6N	-0.706 ± 0.45
V6P	-0.704 ± 0.13
V6Q	-0.803 ± 0.28
V6R	-0.971 ± 0.16
V6S	-0.512 ± 0.072
V6T	-0.148 ± 0.06

Variant	abundance fitness
V6Y	-0.489 ± 0.13
C7A	-0.933 ± 0.2
C7H	-0.802 ± 0.46
C7L	-1.15 ± 0.49
C7R	-0.886 ± 0.18
C7S	-0.96 ± 0.27
C7T	-0.999 ± 0.42
C7V	-0.998 ± 0.26
C7W	-0.765 ± 0.2
C7Y	-0.805 ± 0.26
G8A	0.058 ± 0.048
G8C	-0.233 ± 0.084
G8D	-0.085 ± 0.09
G8E	-0.075 ± 0.087
G8F	-0.202 ± 0.096
G8H	-0.273 ± 0.16
G8I	-0.605 ± 0.25
G8K	-0.019 ± 0.11
G8L	-0.08 ± 0.045
G8M	-0.062 ± 0.07
G8N	-0.235 ± 0.14
G8Q	-0.095 ± 0.061
G8R	-0.043 ± 0.039
G8S	-0.057 ± 0.055

Variant	abundance fitness
G8T	-0.079 ± 0.072
G8V	-0.621 ± 0.078
G8W	-0.27 ± 0.069
G8Y	-0.248 ± 0.17
D9A	0.048 ± 0.049
D9C	-0.137 ± 0.084
D9E	-0.096 ± 0.056
D9F	-0.202 ± 0.1
D9G	-0.053 ± 0.042
D9H	-0.04 ± 0.13
D9I	-0.168 ± 0.15
D9K	-0.231 ± 0.078
D9L	-0.309 ± 0.05
D9N	-0.144 ± 0.1
D9Q	-0.092 ± 0.072
D9R	-0.183 ± 0.042
D9S	-0.102 ± 0.053
D9T	-0.082 ± 0.058
D9V	-0.001 ± 0.042
D9W	-0.214 ± 0.05
D9Y	-0.161 ± 0.092
E10A	-0.063 ± 0.045
E10C	-0.221 ± 0.083
E10D	-0.018 ± 0.082

Variant	abundance fitness
E10G	0.043 ± 0.04
E10H	0.078 ± 0.13
E10I	-0.188 ± 0.093
E10K	0.016 ± 0.057
E10L	-0.028 ± 0.043
E10M	-0.177 ± 0.07
E10N	-0.04 ± 0.12
E10P	-0.108 ± 0.071
E10Q	0.071 ± 0.054
E10R	-0.1 ± 0.044
E10S	-0.03 ± 0.047
E10T	-0.032 ± 0.056
E10V	-0.04 ± 0.044
E10W	-0.012 ± 0.045
E10Y	-0.105 ± 0.071
A11C	-0.123 ± 0.094
A11D	-0.134 ± 0.072
A11E	-0.02 ± 0.057
A11F	-0.194 ± 0.15
A11G	-0.043 ± 0.039
A11H	-0.13 ± 0.082
A11I	-0.354 ± 0.14
A11K	-0.101 ± 0.06
A11L	-0.16 ± 0.039

Variant	abundance fitness
A11M	-0.135 ± 0.074
A11N	0.031 ± 0.078
A11P	-0.001 ± 0.054
A11Q	-0.037 ± 0.053
A11R	-0.089 ± 0.041
A11S	-0.044 ± 0.044
A11T	-0.063 ± 0.064
A11V	-0.222 ± 0.047
A11W	-0.22 ± 0.056
A11Y	-0.245 ± 0.077
S12A	-0.132 ± 0.073
S12C	-0.142 ± 0.11
S12D	-0.238 ± 0.17
S12E	0.103 ± 0.11
S12F	-0.173 ± 0.15
S12G	-0.181 ± 0.074
S12H	-0.117 ± 0.14
S12I	0.043 ± 0.11
S12K	-0.124 ± 0.13
S12L	0.068 ± 0.062
S12M	0.071 ± 0.074
S12N	0.205 ± 0.29
S12P	-0.008 ± 0.067
